Values joined by “and” are separate entries in the source; they are usually repeats but may differ in a detail not shown here. Equal values may be shown once.
Columns and labels:
Test in all cases: fluorescence polarization
[1] = test system: MyOrc1 IDR (Mizuhopecten yessoensis); conditions: about 100 nM or less; EMSA: 50 mM HEPES pH 7.5, 150 mM K-glutamate, 10% glycerol, 1 mM BME, 2 nM DNA, RT 20 min, 1% agarose; FP: same with 150 or 300 mM K-glutamate, 5 mM MgOAc …
[2] = molecular target: T1, DmORC holocomplex (Orc1-6) (Drosophila melanogaster) (UniProt O16810+Q24168+Q24169+Q9Y1B2); conditions: EMSA: 50 mM HEPES pH 7.5, 150 mM K-glutamate, 10% glycerol, 1 mM BME, 2 nM DNA, RT 20 min, 1% agarose; FP: same with 150 or 300 mM K-glutamate, 5 mM MgOAc …
[3] = test system: AqOrc1 IDR (Amphimedon queenslandica); conditions: about 100 nM or less; EMSA: 50 mM HEPES pH 7.5, 150 mM K-glutamate, 10% glycerol, 1 mM BME, 2 nM DNA, RT 20 min, 1% agarose; FP: same with 150 or 300 mM K-glutamate, 5 mM MgOAc …
[4] = test system: AmOrc1 IDR (Acropora millepora); conditions: about 100 nM or less; EMSA: 50 mM HEPES pH 7.5, 150 mM K-glutamate, 10% glycerol, 1 mM BME, 2 nM DNA, RT 20 min, 1% agarose; FP: same with 150 or 300 mM K-glutamate, 5 mM MgOAc …
[5] = molecular target: DmORC delta1IDR holocomplex Orc1:del248-549 (Drosophila melanogaster) (UniProt O16810+Q24168+Q24169+Q9Y1B2); conditions: EMSA: 50 mM HEPES pH 7.5, 150 mM K-glutamate, 10% glycerol, 1 mM BME, 2 nM DNA, RT 20 min, 1% agarose, FP: same with 150 or 300 mM K-glutamate
[6] = test system: DgOrc1 IDR (Dimorphilus gyrociliatus); conditions: about 100 nM or less; EMSA: 50 mM HEPES pH 7.5, 150 mM K-glutamate, 10% glycerol, 1 mM BME, 2 nM DNA, RT 20 min, 1% agarose; FP: same with 150 or 300 mM K-glutamate, 5 mM MgOAc …
[7] = molecular target: T1, DmORC holocomplex (Orc1-6) (Drosophila melanogaster); conditions: EMSA: 50 mM HEPES pH 7.5, 150 mM K-glutamate, 10% glycerol, 1 mM BME, 2 nM DNA, RT 20 min, 1% agarose; FP: same with 150 or 300 mM K-glutamate, 5 mM MgOAc …; remark: listed apart in the source

T1 sequence (O16810 whole entry, chain 1 of 4): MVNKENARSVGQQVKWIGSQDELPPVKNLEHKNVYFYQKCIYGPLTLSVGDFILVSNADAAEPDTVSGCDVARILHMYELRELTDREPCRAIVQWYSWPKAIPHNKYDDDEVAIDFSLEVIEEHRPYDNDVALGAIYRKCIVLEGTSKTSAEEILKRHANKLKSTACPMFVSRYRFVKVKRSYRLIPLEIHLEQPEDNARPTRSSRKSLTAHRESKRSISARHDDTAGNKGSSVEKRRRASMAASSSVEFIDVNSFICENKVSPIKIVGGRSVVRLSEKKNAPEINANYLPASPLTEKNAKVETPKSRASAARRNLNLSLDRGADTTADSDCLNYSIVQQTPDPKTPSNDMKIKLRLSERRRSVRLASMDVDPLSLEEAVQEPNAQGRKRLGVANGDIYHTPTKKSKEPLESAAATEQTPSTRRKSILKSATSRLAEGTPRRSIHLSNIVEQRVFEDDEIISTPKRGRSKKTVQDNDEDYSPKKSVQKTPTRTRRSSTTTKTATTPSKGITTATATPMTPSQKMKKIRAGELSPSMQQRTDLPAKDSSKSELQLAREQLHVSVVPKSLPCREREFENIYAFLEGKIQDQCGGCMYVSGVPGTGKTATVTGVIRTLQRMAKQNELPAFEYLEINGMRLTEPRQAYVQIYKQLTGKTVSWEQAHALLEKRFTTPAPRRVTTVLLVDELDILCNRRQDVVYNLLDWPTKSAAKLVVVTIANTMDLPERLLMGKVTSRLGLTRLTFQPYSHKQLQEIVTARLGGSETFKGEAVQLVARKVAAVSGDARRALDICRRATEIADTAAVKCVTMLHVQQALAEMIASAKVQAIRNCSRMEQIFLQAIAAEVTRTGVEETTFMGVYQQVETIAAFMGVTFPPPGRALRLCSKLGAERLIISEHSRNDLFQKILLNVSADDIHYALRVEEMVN
T1 sequence (Q24168 whole entry, chain 2 of 4): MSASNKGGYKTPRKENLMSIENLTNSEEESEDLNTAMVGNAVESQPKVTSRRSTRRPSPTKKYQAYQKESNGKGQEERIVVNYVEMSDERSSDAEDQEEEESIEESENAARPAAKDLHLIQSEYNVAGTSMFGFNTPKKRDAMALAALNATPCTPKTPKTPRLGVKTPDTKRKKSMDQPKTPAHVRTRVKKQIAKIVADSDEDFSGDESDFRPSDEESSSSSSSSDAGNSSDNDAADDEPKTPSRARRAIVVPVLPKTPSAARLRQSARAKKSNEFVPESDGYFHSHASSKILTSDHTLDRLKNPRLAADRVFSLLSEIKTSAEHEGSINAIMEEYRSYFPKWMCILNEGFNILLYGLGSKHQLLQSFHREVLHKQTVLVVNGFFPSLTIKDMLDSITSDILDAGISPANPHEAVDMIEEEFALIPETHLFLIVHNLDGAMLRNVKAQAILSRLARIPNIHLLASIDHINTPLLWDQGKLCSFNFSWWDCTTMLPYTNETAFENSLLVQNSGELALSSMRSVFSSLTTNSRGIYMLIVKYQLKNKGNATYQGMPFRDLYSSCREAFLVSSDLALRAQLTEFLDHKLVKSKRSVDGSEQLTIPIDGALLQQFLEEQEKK
T1 sequence (Q24169 whole entry, chain 3 of 4): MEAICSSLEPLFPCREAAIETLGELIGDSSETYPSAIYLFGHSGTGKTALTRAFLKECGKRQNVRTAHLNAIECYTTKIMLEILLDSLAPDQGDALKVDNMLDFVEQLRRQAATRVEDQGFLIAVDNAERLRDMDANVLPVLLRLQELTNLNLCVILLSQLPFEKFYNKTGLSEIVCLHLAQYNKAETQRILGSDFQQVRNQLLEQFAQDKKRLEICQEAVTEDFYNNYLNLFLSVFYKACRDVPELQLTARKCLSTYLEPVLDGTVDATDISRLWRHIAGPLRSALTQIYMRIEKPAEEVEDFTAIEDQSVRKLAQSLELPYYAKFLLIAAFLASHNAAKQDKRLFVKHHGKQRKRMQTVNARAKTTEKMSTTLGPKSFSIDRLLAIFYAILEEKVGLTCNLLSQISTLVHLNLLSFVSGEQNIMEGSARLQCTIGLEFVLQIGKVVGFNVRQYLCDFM
T1 sequence (Q9Y1B2 whole entry, chain 4 of 4): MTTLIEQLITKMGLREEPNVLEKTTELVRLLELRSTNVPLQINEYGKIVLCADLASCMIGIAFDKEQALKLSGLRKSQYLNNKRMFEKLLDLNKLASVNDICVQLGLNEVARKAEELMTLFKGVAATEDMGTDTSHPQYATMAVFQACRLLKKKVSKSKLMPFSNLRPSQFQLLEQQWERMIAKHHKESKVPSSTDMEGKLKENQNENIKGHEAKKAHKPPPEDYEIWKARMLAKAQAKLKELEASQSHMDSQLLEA
Sequence of DmORC delta1IDR holocomplex Orc1:del248-549 (Drosophila melanogaster) (O16810 whole entry, stated change not applied, chain 1 of 4): as the sequence (O16810 whole entry, chain 1 of 4) above
Sequence of DmORC delta1IDR holocomplex Orc1:del248-549 (Drosophila melanogaster) (Q24168 whole entry, stated change not applied, chain 2 of 4): as the sequence (Q24168 whole entry, chain 2 of 4) above
Sequence of DmORC delta1IDR holocomplex Orc1:del248-549 (Drosophila melanogaster) (Q24169 whole entry, stated change not applied, chain 3 of 4): as the sequence (Q24169 whole entry, chain 3 of 4) above
Sequence of DmORC delta1IDR holocomplex Orc1:del248-549 (Drosophila melanogaster) (Q9Y1B2 whole entry, stated change not applied, chain 4 of 4): as the sequence (Q9Y1B2 whole entry, chain 4 of 4) above

In the case of “GAAGCTAGACTTAGGTGTCATATTGAACCTACTATGCCGAACTAGTTACGAGCTATAACC (double strand) [FITC-dsDNA 60 bp]”, the Kd [1] is reported as 100 nM, the Kd [2] is reported as 7 nM and the Kd [3] is reported as 100 nM. The Kd [4] was 100 nM, the Kd ([5]; 5 mM MgOAc …) was 19 nM and the Kd ([5]; no ATP, 150 mM KGlut, 5 mM MgOAc, severely impaired) was greater than 1000 nM. For the same sequence, the Kd [6] was 100 nM and the Kd [7] was 6 nM and 34 nM.
